Reference: patent US20200181243A1
Like-named read-outs stand apart in the source and are kept apart here.

What was measured:
[1] = biological target: Hemagglutinin (HA)
[2] = biological target: Hemagglutinin (HA); experiment: Hemagglutinin (HA) binding ELISA potency; antibody in Formulation #3, t=0

B1: Ab 044 (antibody, V domains shown)
VH: QVQLLETGGGLVKPGQSLKLSCAASGFTFTSYAMHWVRQPPGKGLEWVAVVSYDGNYKYYADSVQGRFTISRDNSKNTLYLQMNSLRAEDTAVYYCAKDSRLRSLLYFEWLSQGYFNPWGQGTTLTVSS
VL: DIQMTQSPSSLSASVGDRVTITCRSSQSITFDYKNYLAWYQQKPGKAPKLLIYWGSYLESGVPSRFSGSGSGTDFTLTISSLQPEDFATYYCQQHYRTPPSFGQGTKVEIK
[1]
  % Activity: 97%
  Average % Activity: 110%
[2]
  % Activity: 123%
